B1: bovine ZP3 fragment Arg-32 to Glu-178, N-terminal His-tag and S-tag [modified: N-glycosylated Asn-124 and Asn-146; N-glycosylated Asn-124 and Asn-146] [bovine] / bovine ZP4 (Lys-25 to Arg-464) with N-terminal FLAG-tag and … (parent)
chain 1: RFRPSKPPAVMVECQEAQLVVTVDKDLFGTGKLIRPADLTLGPDNCEPLASADTDGVVRFAVGLHECGNILQVTDNALVYSTFLLHNPRPAGNLSILRTNRAEVPIECHYPRQGNVSSWAIQPTWVPFRTTVFSEEKLVFSLRLMEE
chain 2: KVPEYPDELRCGLRSFQFTINPLSQETETPPVLVAWDNHGLPHSLQNDSDCGTWVSEGPGSSLVGEASYSGCYVTEWESYYIMTVGIERAGVSGSGAFIETKLFKCPVNLPDVPNAGLCDSVPVWDRLPCAPSPITQGDCKQLGCCYNSEEVISCYYGNTVTSHCTQDGHFSIAVSRNVTSPPLLLNSVHLAFRNDSECKPVMATHTFVLFRFPFTTCGTTKQITGKQAVYENELVAARDVRTWSRGSITRDSTFRLQVSCSYSASSSALPVNVQVLTLPPPLPETQPGNLTLELKIAKDKRYRSYYTASDYPVVKLLRDPIYVEVSIHQRTDPSLELRLDQCWATPGADALLQPQWPLLVNGCPYTGDNYQTKLIPVWEASDLPFPSHYQRFSISTFSFVDSVAKRALKGPVYLHCSASVCQPAGTPSCVTLCPARRRR

Variants of: B1
Test: co-precipitation (TALON resin pull-down of His-tagged ZP3 fragment, anti-FLAG Western blot quantified with NIH ImageJ)
Details: with bovine ZP4 (Lys-25 to Arg-464) with N-terminal FLAG-tag and S-tag [bovine]; parent: 100; read off a plot

Variant | percent of parent [%]
chain 1 N93D | 100
chain 1 N115D | 130
chain 1 N93D N115D | 110
